Data: the supplement of paper PMC7877785
± gives the uncertainty stated by the source.

Assay: self-splicing fitness, log relative to wild type (ln ratio); higher = more splicing; Tetrahymena group I intron in knt gene, E. coli kanamycin selection, DiMSum; sequences stand for … in CUCUCU…GGAGGGAAAAGUUAUCAGGCAUGCACCUGGUAGCUAGUCUUUAAACCAAUAGAUUGCAUCGGUUUAAAAGGCAAGACCGUCAAAUUGCGGGAAAGGGGUCAACAGCCGUUCAGUACCAAGUCUCAGGGGAAACUUUGAGAUGGCCUUGCAAAGGGUAUGGUAAUAAGCUGACGGACAUGGUCCUAACCACGCAGCCAAGUCCUAAGUCAACAGAUCUUCUGUUGAUAUGGAUGCAGUUCACAGACUAAAUGUCGGUCGGGGAAGAUGUAUUCUUCUCAUAAGAUAUAGUCGGACCUCUCCUUAAUGGGAGCUAGCGGAUGAAGUGAUGCAACACUGGAGCCGCUGGGAACUAAUUUGUAUGCGAAAGUAUAUUGAUUAGUUUUGGAGUACUCGUGGUCG
Procedure, shortened: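 The eight P1ex-region nucleotides of an intron in the knt kanamycin-resistance gene on pET-22b(+) were all randomised and the library put into E. coli BL21(DE3). Six replicate transformations were grown overnight at 37°C or 30°C on LB agar with or without 25 μg/mL kanamycin, together with 100 μg/mL carbenicillin, 50 μM IPTG and 0.2% rhamnose. Colonies were pooled and amplicon-sequenced on an Illumina HiSeq 2500. Fitness from DiMSum is the error-weighted combination of wild-type-normalised replicate fold changes, kanamycin over none.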

| Sequence | self-splicing fitness (ln) (30 °C) | self-splicing fitness (ln) (37 °C) |
| --- | --- | --- |
| GAUCAGCAAUAUUACGUUAA | -1.23 ± 0.076 | -0.776 ± 0.084 |
| AGUGAGCAAUAUUACGUCGA | -3.92 ± 0.24 | -2 ± 0.16 |
| ACUUAGCAAUAUUACGAUGC | -1.04 ± 0.091 | -0.644 ± 0.11 |
| GCCCAGCAAUAUUACGGUCG | -1.61 ± 0.083 | -1.31 ± 0.096 |
| AUGCAGCAAUAUUACGAUCC | -1.78 ± 0.22 | -0.259 ± 0.29 |
| CUAGAGCAAUAUUACGCCAU | -3.39 ± 0.19 | -3.11 ± 0.29 |
| CUUGAGCAAUAUUACGUUAU | -3.45 ± 0.27 | -2.77 ± 0.36 |
| CCGUAGCAAUAUUACGUGGA | -3.1 ± 0.32 | -2.84 ± 0.21 |
| UUUCAGCAAUAUUACGGAAC | -1.24 ± 0.22 | – |
| GAAUAGCAAUAUUACGAUCA | -1.11 ± 0.12 | 0.308 ± 0.11 |
| UACCAGCAAUAUUACGUUCG | -0.545 ± 0.071 | 0.0802 ± 0.092 |
| CAUAAGCAAUAUUACGGUUA | -2.7 ± 0.16 | -2.05 ± 0.12 |
| CGUGAGCAAUAUUACGGGCC | -1.9 ± 0.32 | – |
| UGCAAGCAAUAUUACGGGUU | -2.62 ± 0.095 | -1.23 ± 0.093 |
| UUGAAGCAAUAUUACGCGUC | -3.32 ± 0.33 | -1.02 ± 0.33 |
| GAGUAGCAAUAUUACGUAAG | -2.82 ± 0.14 | 0.0773 ± 0.14 |
| CUUUAGCAAUAUUACGUUGU | -3.88 ± 0.17 | -3.45 ± 0.21 |
| UCUUAGCAAUAUUACGCGCC | -3.51 ± 0.22 | -2.42 ± 0.22 |
| UACUAGCAAUAUUACGAACG | -0.328 ± 0.15 | -0.12 ± 0.18 |
| GCUAAGCAAUAUUACGUCUU | -1.18 ± 0.13 | 0.136 ± 0.13 |
| AGACAGCAAUAUUACGAUCA | -0.682 ± 0.074 | 0.267 ± 0.089 |
| AUCUAGCAAUAUUACGCAAG | -1.46 ± 0.17 | -1.29 ± 0.18 |
| AGACAGCAAUAUUACGGUUC | -3.34 ± 0.18 | -1.05 ± 0.13 |
| AAACAGCAAUAUUACGUGAG | -0.858 ± 0.04 | -0.552 ± 0.064 |
| AAGAAGCAAUAUUACGCGUG | -0.716 ± 0.073 | -0.537 ± 0.093 |

| Sequence | self-splicing fitness (ln) (30 °C) | self-splicing fitness (ln) (37 °C) |
| --- | --- | --- |
| CUCAAGCAAUAUUACGAAGU | -3.75 ± 0.2 | -2.36 ± 0.21 |
| AUCUAGCAAUAUUACGCUCC | -0.7 ± 0.18 | -0.736 ± 0.25 |
| CACUAGCAAUAUUACGUCCG | -0.0671 ± 0.11 | 0.268 ± 0.13 |
| UUGCAGCAAUAUUACGUAUA | -1.32 ± 0.12 | -1.01 ± 0.12 |
| GAGAAGCAAUAUUACGACAU | -0.36 ± 0.013 | -0.137 ± 0.033 |
| AAUUAGCAAUAUUACGGCUA | -0.905 ± 0.17 | -0.685 ± 0.22 |
| GAAUAGCAAUAUUACGCCGG | -2.65 ± 0.32 | -1.79 ± 0.24 |
| CGCCAGCAAUAUUACGUCUG | -2.97 ± 0.18 | -0.917 ± 0.13 |
| ACGUAGCAAUAUUACGGCUU | 0.0669 ± 0.089 | 0.194 ± 0.11 |
| AGCCAGCAAUAUUACGCAGA | -3.39 ± 0.18 | -2.94 ± 0.18 |
| GGGGAGCAAUAUUACGUGGA | -2.04 ± 0.35 | -2.48 ± 0.39 |
| GGUUAGCAAUAUUACGCACA | -0.431 ± 0.1 | -0.339 ± 0.14 |
| AGUUAGCAAUAUUACGGGUC | -1.99 ± 0.33 | – |
| AUACAGCAAUAUUACGAGUA | -1.76 ± 0.16 | -0.461 ± 0.1 |
| CACUAGCAAUAUUACGGGGC | -3.4 ± 0.17 | -2.23 ± 0.14 |
| ACCCAGCAAUAUUACGUAUG | -3.89 ± 0.14 | -1.77 ± 0.11 |
| ACACAGCAAUAUUACGCUCG | -0.365 ± 0.064 | 0.194 ± 0.085 |
| GUACAGCAAUAUUACGCAUC | -3.74 ± 0.23 | -1.36 ± 0.19 |
| GUAUAGCAAUAUUACGCUGG | -2.35 ± 0.17 | -1.01 ± 0.18 |
| GGGUAGCAAUAUUACGAGCA | -0.991 ± 0.2 | 0.0569 ± 0.17 |
| CACUAGCAAUAUUACGGGGA | -2.57 ± 0.19 | -1.63 ± 0.17 |
| AACCAGCAAUAUUACGGAAG | -1.22 ± 0.066 | 0.117 ± 0.089 |
| GGUCAGCAAUAUUACGCGGA | -2.04 ± 0.47 | -2.17 ± 0.41 |
| UGCAAGCAAUAUUACGUAAU | -1.85 ± 0.089 | -1.86 ± 0.13 |
| CGUAAGCAAUAUUACGGGGU | -3.79 ± 0.18 | -3.36 ± 0.25 |

| Sequence | self-splicing fitness (ln) (30 °C) | self-splicing fitness (ln) (37 °C) |
| --- | --- | --- |
| AAGAAGCAAUAUUACGCGGC | -3.5 ± 0.49 | -2.17 ± 0.44 |
| UGGCAGCAAUAUUACGGGCA | -0.0254 ± 0.11 | -0.0149 ± 0.12 |
| AAGAAGCAAUAUUACGUGAU | -1.96 ± 0.11 | -2.09 ± 0.11 |
| AACUAGCAAUAUUACGUCCC | -0.0622 ± 0.15 | 0.182 ± 0.16 |
| CUCCAGCAAUAUUACGUUAA | -3.9 ± 0.25 | -2.68 ± 0.36 |
| AGCGAGCAAUAUUACGUAGU | -4.11 ± 0.16 | -1.11 ± 0.13 |
| AAAGAGCAAUAUUACGAAUC | -3.27 ± 0.24 | -2.7 ± 0.26 |
| GGUAAGCAAUAUUACGGCCU | -2.34 ± 0.33 | – |
| CCAAAGCAAUAUUACGUACG | -0.00591 ± 0.081 | 0.0861 ± 0.084 |
| AUUCAGCAAUAUUACGUAUA | -1.66 ± 0.16 | -0.805 ± 0.17 |
| UUGGAGCAAUAUUACGCGCG | -2.3 ± 0.11 | -0.8 ± 0.1 |
| CGACAGCAAUAUUACGCGAC | – | -2.98 ± 0.26 |
| AACUAGCAAUAUUACGGAUA | -2.79 ± 0.25 | -1.2 ± 0.23 |
| ACAAAGCAAUAUUACGGUCA | -0.595 ± 0.069 | -0.472 ± 0.07 |
| GCCUAGCAAUAUUACGAAGA | -1.82 ± 0.24 | -0.65 ± 0.12 |
| UGUAAGCAAUAUUACGGGUG | -0.874 ± 0.18 | -0.00955 ± 0.19 |
| CGUCAGCAAUAUUACGGCGU | -4.74 ± 0.34 | -0.685 ± 0.19 |
| GGAGAGCAAUAUUACGCCUC | -3.07 ± 0.36 | – |
| GUCUAGCAAUAUUACGCCUA | -0.955 ± 0.31 | -0.323 ± 0.27 |
| AGGGAGCAAUAUUACGUUCC | – | -2.63 ± 0.48 |
| AUUGAGCAAUAUUACGUGGC | -3.45 ± 0.16 | -3.69 ± 0.3 |
| UGGAAGCAAUAUUACGCCAC | -2.25 ± 0.42 | – |
| GAAGAGCAAUAUUACGGGAA | -3.54 ± 0.47 | -1.72 ± 0.28 |
| AUCUAGCAAUAUUACGACCU | -0.471 ± 0.11 | 0.729 ± 0.12 |
| GUCUAGCAAUAUUACGUUUG | -2.11 ± 0.088 | -1.62 ± 0.11 |

| Sequence | self-splicing fitness (ln) (30 °C) | self-splicing fitness (ln) (37 °C) |
| --- | --- | --- |
| UGUUAGCAAUAUUACGAAGA | – | -1.54 ± 0.4 |
| UGGAAGCAAUAUUACGCUAA | -1.31 ± 0.32 | -0.826 ± 0.38 |
| GUCGAGCAAUAUUACGGAUA | – | -1.25 ± 0.27 |
| AUGCAGCAAUAUUACGAAAA | – | -2.23 ± 0.42 |
| CCUUAGCAAUAUUACGCUAA | -3.35 ± 0.4 | -1.97 ± 0.2 |
| AUAGAGCAAUAUUACGCACU | -0.797 ± 0.14 | 0.815 ± 0.14 |
| CCGCAGCAAUAUUACGUUGG | -3.26 ± 0.22 | -1.52 ± 0.2 |
| AUGGAGCAAUAUUACGUUUC | -3.47 ± 0.21 | -2.68 ± 0.26 |
| GGCUAGCAAUAUUACGAGCU | -2.9 ± 0.47 | -1.65 ± 0.31 |
| CAGUAGCAAUAUUACGCUCU | -2.44 ± 0.18 | -0.957 ± 0.15 |
| AGUGAGCAAUAUUACGGCAU | -1.36 ± 0.12 | -0.254 ± 0.13 |
| ACAUAGCAAUAUUACGUAUG | -2.67 ± 0.12 | -1.73 ± 0.12 |
| GCACAGCAAUAUUACGGCCG | -2.48 ± 0.17 | -1.75 ± 0.18 |
| GUUUAGCAAUAUUACGGUUC | -1.09 ± 0.12 | -0.823 ± 0.15 |
| UAAAAGCAAUAUUACGCUCU | -1.02 ± 0.12 | -0.11 ± 0.14 |
| UCACAGCAAUAUUACGAGAA | -3.16 ± 0.34 | -1.68 ± 0.24 |
| CGACAGCAAUAUUACGUCUU | -0.458 ± 0.066 | -0.212 ± 0.073 |
| GGUAAGCAAUAUUACGAAGC | -3.07 ± 0.23 | -0.664 ± 0.23 |
| AUCUAGCAAUAUUACGACGA | -0.367 ± 0.12 | -0.44 ± 0.12 |
| ACAGAGCAAUAUUACGUCAC | -3.39 ± 0.26 | -2.43 ± 0.41 |
| CUCUAGCAAUAUUACGAGGC | -3.18 ± 0.36 | – |
| GCUAAGCAAUAUUACGCUAA | -3.29 ± 0.34 | -2.3 ± 0.21 |
| AGGAAGCAAUAUUACGCCCU | -2.95 ± 0.33 | – |
| GUUGAGCAAUAUUACGGGGG | -3.87 ± 0.31 | -2.34 ± 0.25 |
